Data as given in PMC8776733, “In vivo spatiotemporal control of voltage-gated ion channels by using photoactivatable peptidic toxins” (Nature Communications, 2022).
Ends that are not written are not given here. * marks the point of attachment. Nvoc = Nvoc photocleavable protecting (caging) group on the Lys side chain, COc1cc(COC(=O)*)c([N+](=O)[O-])cc1OC

How the values were obtained:
Assay type in all cases: cell-based
[1] = target: T1, hNaV1.6 (Homo sapiens, UniProt Q9UQD0); assay: Photoactivation by UV illumination combined with automated patch-clamp; conditions: 100 nM, illumination 4 min, 365 nm, 45 mW/cm2; n = 14
T1 construct: expressed in transfected cells
Protocol: (§1) HEK293 cells stably expressing the hNaV1.1 (XM_011511604), hNaV1.2 (XM_017004655) or hNaV1.6 (XM_011538651) channels, CHO cells transiently expressing hKV1.2 (NG_027997.2) and CHO cells stably expressing hNaV1.7 (XM_011511618) or the hERG (NM_000238) channels were cultured in Dulbecco’s Modified Eagle’s Medium (DMEM) supplemented with 10% fetal bovine serum, 1 mM pyruvic acid, 4.5 g/L glucose, 4 mM glutamine, 800 µg/mL G418, 10 U/mL penicillin and 10 μg/mL streptomycin (Gibco, Grand Island, NY). All cell lines were incubated at 37 °C in a 5% CO2 atmosphere. For electrophysiological recordings, cells were detached with trypsin and floating single cells were diluted (~300,000 cells/mL) in medium contained (in mM): […], 4 KCl, 2 CaCl2, 1 MgCl2, 5 glucose, and 10 HEPES (pH 7.4, osmolarity 298 mOsm).
(§2) Automated patch-clamp recordings were performed using the SyncroPatch 384PE from Nanion (München, Germany). […] Current inhibition percentages were measured at equilibrium after 14 min peptide application time. […]
(§3) The pharmacology of HwTxIV-Nvoc, as well as the efficiency of the released product to block hNaV channels was studied using combined automated patch-clamp and UV illumination. After 2 min of control, HwTxIV-Nvoc was added to the external buffer and effects were recorded for 100 s prior to a 250 s-duration illumination for photocleavage induction of the caged compound. […]

[2] = target: T2, hERG (Homo sapiens, UniProt Q12809); assay: Photocontrol of hERG current, automated patch-clamp; conditions: 100 nM; 365 nm, 45 mW/cm^2, 250 s
T2 construct: expressed in transfected cells
Protocol: as §1, §2, §3

[3] = target: T3, hKV1.2 (Homo sapiens, UniProt P16389); assay: Photocontrol of KV1.2 current, automated patch-clamp; conditions: 100 nM; 365 nm, 45 mW/cm^2, 250 s
T3 construct: expressed in transfected cells; host or cells: CHO (transient)
Protocol: as §1, §2, §3

T2 sequence (Q12809 whole entry): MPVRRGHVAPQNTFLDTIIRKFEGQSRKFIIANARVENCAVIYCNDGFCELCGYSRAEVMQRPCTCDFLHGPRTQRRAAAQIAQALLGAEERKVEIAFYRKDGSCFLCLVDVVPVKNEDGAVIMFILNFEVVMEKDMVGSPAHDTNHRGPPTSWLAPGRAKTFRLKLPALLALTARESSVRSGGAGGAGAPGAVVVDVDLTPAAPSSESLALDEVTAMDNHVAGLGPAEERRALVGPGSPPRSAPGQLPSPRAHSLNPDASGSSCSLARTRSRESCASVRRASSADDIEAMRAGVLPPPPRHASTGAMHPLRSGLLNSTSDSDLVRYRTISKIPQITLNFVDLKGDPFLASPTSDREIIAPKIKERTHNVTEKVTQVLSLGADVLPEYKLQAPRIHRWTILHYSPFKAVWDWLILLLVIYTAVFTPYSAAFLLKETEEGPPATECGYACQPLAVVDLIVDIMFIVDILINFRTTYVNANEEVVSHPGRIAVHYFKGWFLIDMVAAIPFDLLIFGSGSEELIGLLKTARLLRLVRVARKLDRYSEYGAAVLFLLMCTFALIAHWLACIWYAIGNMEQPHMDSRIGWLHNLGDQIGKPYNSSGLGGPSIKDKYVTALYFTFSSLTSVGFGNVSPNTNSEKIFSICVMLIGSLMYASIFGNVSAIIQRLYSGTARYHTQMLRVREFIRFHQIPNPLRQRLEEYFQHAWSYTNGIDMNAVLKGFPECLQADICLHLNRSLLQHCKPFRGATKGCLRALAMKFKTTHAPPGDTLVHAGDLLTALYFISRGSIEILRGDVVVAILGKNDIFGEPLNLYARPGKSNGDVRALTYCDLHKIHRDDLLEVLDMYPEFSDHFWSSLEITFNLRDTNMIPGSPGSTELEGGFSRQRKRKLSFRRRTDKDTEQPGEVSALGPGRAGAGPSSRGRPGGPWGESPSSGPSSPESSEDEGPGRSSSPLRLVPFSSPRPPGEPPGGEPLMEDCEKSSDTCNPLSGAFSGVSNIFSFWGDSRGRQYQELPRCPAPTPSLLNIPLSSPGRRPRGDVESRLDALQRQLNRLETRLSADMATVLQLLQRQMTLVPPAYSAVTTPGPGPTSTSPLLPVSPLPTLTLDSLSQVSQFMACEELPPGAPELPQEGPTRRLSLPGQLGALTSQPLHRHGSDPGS
T1 sequence (Q9UQD0 whole entry): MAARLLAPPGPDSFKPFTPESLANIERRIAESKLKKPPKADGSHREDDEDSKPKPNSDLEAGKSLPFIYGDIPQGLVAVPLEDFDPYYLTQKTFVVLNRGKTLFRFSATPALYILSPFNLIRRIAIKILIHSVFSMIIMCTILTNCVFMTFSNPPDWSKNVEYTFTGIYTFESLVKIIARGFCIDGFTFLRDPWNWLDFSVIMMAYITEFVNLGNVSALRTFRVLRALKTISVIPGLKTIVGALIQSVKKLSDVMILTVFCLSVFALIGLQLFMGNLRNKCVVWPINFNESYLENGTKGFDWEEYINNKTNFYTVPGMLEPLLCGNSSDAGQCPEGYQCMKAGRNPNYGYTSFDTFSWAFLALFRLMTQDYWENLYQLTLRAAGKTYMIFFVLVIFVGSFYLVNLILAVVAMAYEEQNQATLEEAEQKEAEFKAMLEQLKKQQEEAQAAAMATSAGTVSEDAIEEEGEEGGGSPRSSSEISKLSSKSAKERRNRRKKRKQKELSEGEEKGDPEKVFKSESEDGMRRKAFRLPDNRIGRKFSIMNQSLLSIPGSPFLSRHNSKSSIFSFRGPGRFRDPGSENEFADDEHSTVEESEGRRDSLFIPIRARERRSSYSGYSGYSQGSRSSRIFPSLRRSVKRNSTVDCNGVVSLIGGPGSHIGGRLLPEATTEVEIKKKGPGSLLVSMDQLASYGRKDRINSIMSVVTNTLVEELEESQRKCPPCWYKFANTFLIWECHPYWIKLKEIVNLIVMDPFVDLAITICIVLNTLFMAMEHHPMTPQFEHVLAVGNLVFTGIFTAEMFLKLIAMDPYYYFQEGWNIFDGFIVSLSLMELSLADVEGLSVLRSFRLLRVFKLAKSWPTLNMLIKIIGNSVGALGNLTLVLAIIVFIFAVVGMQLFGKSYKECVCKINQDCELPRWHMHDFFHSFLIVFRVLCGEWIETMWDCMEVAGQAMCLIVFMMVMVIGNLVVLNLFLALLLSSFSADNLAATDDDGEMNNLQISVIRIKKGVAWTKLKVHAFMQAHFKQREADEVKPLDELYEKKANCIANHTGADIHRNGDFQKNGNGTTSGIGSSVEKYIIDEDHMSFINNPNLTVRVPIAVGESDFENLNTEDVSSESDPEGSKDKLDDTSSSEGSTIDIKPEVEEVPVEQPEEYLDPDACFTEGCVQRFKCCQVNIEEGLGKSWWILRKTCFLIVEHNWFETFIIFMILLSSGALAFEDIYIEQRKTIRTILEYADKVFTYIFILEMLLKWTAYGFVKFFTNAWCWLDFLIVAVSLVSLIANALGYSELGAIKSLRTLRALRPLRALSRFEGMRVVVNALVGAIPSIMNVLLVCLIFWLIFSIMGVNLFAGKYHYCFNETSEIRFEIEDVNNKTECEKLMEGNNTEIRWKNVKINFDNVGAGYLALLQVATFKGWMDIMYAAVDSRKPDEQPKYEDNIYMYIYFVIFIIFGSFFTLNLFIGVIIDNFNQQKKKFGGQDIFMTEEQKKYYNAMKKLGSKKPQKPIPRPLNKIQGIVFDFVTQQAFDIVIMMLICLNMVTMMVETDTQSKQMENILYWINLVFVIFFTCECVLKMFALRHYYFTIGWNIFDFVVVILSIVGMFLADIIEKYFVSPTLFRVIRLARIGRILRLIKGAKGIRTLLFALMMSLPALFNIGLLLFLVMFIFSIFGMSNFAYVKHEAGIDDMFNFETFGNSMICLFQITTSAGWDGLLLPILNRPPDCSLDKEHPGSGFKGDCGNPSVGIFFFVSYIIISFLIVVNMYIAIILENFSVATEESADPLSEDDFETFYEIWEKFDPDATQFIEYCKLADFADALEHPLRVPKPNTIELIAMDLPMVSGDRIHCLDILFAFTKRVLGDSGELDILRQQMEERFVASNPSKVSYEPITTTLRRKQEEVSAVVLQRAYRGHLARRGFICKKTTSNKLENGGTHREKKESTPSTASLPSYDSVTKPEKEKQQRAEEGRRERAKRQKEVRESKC
T3 sequence (P16389 whole entry): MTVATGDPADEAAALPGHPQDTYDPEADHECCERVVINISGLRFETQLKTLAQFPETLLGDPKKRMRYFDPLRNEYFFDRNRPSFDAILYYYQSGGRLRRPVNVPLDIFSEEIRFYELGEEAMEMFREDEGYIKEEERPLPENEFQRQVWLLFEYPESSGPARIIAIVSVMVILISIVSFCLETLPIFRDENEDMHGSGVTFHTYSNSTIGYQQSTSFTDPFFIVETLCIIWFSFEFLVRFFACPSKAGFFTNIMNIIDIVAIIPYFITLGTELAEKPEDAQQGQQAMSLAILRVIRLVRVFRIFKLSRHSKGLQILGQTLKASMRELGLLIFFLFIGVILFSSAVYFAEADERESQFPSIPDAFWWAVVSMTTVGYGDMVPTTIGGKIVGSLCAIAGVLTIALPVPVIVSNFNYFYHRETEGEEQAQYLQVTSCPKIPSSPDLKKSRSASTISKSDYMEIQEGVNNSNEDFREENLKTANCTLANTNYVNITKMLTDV

BeKm1-Nvoc: BeKm1 (hERG blocker) caged with a Nvoc protecting group on K^18 (RPTDIKCSESYQCFPVCK(Nvoc)SRFGKTNGRCVNGFCDCF; ends and bridges not checked; UniProt Q9BKB7 22-57, looked up)
effect of Nvoc photolysis by-product on hNaV1.6 [1]: inert
UV-dependent effect on hERG current [2]: block

charybdotoxin-Nvoc
UV-dependent effect on KV1.2 current [3]: block
